In patent US20260151494A1 (ARO BIOTHERAPEUTICS, published 2026):

What was measured:
[1] = target: T1, human CD71 extracellular domain (human, UniProt P02786 89-760); assay: primary ELISA of colonies, luminescence
T1 construct: also called hCD71; human CD71-ECD

[2] = target: T2, apical domain of human CD71 (human, UniProt P02786 189-383, limits assumed); assay: primary ELISA of colonies, luminescence
T2 construct: domain: apical domain; the panning antigen was 30% biotinylated; also called human apical domain of CD71
T2 sequence (P02786 189-383 limits assumed): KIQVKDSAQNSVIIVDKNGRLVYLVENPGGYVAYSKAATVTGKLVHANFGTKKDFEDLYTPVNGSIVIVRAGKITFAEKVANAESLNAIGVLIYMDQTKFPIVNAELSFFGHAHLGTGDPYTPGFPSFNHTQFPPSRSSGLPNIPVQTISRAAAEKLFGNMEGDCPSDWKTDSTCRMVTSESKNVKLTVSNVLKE

[3] = target: T1, human CD71 extracellular domain; assay: primary ELISA; signal on hCD71 over signal on HSA
[4] = target: T2, apical domain of human CD71; assay: primary ELISA; signal on apical domain over signal on HSA
[5] = target: T3, human CD71 on cells (SKBR3; SW620-rLuc-KRAS) (human, UniProt P02786 1-760); assay: cell-based or functional assay
T3 sequence (P02786 whole entry): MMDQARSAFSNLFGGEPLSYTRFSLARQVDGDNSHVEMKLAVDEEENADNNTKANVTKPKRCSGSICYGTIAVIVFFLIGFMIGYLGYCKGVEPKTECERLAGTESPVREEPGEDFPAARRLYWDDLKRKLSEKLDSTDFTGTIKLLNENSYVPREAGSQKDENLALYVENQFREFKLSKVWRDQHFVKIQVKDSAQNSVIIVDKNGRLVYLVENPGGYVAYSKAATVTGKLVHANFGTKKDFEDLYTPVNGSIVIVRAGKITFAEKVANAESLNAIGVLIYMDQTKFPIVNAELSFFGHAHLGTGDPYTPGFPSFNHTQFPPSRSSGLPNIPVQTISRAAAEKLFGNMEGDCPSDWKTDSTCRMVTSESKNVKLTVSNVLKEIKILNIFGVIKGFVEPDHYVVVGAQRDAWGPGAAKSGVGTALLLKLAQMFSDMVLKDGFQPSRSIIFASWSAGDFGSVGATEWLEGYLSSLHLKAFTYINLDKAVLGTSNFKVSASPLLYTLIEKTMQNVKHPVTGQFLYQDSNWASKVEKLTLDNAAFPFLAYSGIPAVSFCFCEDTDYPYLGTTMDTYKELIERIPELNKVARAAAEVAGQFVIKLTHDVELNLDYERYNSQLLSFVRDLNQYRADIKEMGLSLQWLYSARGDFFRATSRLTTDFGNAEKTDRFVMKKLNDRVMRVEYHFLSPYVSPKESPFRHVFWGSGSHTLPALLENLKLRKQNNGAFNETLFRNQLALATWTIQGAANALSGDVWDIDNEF

[6] = target: T3, human CD71 on cells (SKBR3; …); assay: cell-based or functional assay; remark: listed apart in the source

T1 sequence (P02786 89-760): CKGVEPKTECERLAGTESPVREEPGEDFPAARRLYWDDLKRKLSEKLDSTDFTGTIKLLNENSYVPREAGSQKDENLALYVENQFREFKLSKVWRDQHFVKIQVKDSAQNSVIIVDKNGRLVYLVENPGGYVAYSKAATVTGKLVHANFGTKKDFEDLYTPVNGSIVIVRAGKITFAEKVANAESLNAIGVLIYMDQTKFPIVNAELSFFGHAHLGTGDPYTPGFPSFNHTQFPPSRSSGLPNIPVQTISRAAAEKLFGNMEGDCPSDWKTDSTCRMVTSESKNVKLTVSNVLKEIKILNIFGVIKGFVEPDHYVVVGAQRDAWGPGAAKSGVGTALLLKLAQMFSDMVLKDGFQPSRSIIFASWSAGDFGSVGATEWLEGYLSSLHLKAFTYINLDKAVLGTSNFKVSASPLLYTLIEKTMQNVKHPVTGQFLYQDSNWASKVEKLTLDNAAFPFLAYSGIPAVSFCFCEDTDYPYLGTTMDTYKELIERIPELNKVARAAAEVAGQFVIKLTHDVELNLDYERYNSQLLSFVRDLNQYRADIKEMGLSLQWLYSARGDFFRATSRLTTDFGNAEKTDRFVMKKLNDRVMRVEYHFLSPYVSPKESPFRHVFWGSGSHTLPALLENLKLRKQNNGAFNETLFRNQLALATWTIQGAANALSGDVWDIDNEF

B1: CD71-binding FN3 domain of SEQ ID NO: 101 (designed binder)
chain: MLPAPKNLVVSRVTEDSARLSWTAPDAAFDSFGIGYWERRWYGEAIVLTVPGSERSYDLTGLKPGTEYEVTIRGVKGGGYSGPLSAIFTT
notes: Screen 1 hit, tested from colonies in the primary ELISA; not shown: C-terminal poly-histidine tag added to each FN3 domain
hCD71, RLU [1]: 340000 RLU
Apical domain, RLU [2]: 542000 RLU
hCD71:HSA [3]: 78 ratio
Apical domain:HSA [4]: 125 ratio

B2: CD71-binding FN3 domain of SEQ ID NO: 100 (designed binder)
chain: MLPAPKNLVVSRVTEDSARLSWTAPDAAFDSFYIAYAEPRPDGEAILLLVPGSERSYDLTGLKPGTEYSVLIHGVKGGLLSSPLVASFTT
notes: as for B1
hCD71, RLU [1]: 6.95e+06 RLU
Apical domain, RLU [2]: 6.1e+06 RLU
hCD71:HSA [3]: 897 ratio
Apical domain:HSA [4]: 787 ratio

B3: CD71-binding FN3 domain of SEQ ID NO: 108 (designed binder)
chain: MLPAPKNLVVSRVTEDSARLSWTAPDAAFDSFYIAYAEPRPDGEAILLQVPGSERSYDLTGLKPGTEYSVLIHGVKGGLLSSPLVAKFTT
notes: as for B1
hCD71, RLU [1]: 3.81e+06 RLU
Apical domain, RLU [2]: 5.77e+06 RLU
hCD71:HSA [3]: 1140 ratio
Apical domain:HSA [4]: 1720 ratio

B4: CD71-binding FN3 domain of SEQ ID NO: 103 (designed binder)
chain: MLPAPKNLVVSRVTEDSARLSWTAPDAAFDSFYIAYAEPRPDGEAIILGVPGSERSYDLTGLKPGTEYSVLIHGVKGGLLSSPLSAYSTT
notes: as for B1
hCD71, RLU [1]: 6.37e+06 RLU
Apical domain, RLU [2]: 5.3e+06 RLU
hCD71:HSA [3]: 350 ratio
Apical domain:HSA [4]: 291 ratio

B5: CD71-binding FN3 domain of SEQ ID NO: 118 (designed binder)
chain: MLPAPKNLVVSRVTEDSARLSWTAPDAAFDSFYIAYAEPRPDGEAITLWVPGSERSYDLTGLKPGTEYSVTIHGVKGGLLSSPLSAIFTT
notes: as for B1
hCD71, RLU [1]: 641000 RLU
Apical domain, RLU [2]: 3.75e+06 RLU
hCD71:HSA [3]: 200 ratio
Apical domain:HSA [4]: 1170 ratio

B6: CD71-binding FN3 domain of SEQ ID NO: 106 (designed binder)
chain: MLPAPKNLVVSRVTEDSARLSWTAPDAVFDSFYIAYAEPRPDGEAIGLYVPGSERSYDLTGLKPGTEYSVLIHGVKGGLLSSPLTASFTT
notes: as for B1
hCD71, RLU [1]: 3.13e+06 RLU
Apical domain, RLU [2]: 4.81e+06 RLU
hCD71:HSA [3]: 1230 ratio
Apical domain:HSA [4]: 1890 ratio

B7: CD71-binding FN3 domain of SEQ ID NO: 116 (designed binder)
chain: MLPAPKNLVVSRVTEDSARLSWTAPDAAFDSFYIAYAEPRPDGEAILLLVPGSERSYDLTGLKPGTEYSVLIHGVKGGLLSSPLIAGFTT
notes: as for B1
hCD71, RLU [1]: 4.05e+06 RLU
Apical domain, RLU [2]: 6.06e+06 RLU
hCD71:HSA [3]: 1470 ratio
Apical domain:HSA [4]: 2200 ratio

B8: CD71-binding FN3 domain of SEQ ID NO: 234 conjugated to KRAS2 siRNA (designed binder)
chain: MSLPAPKNLVVSRVTEDSARLSWTAPDAAFDSFFIGYLEPQPPGEAIALYVPGSERSYDLTGLKPGTEYNVTIQGVKGGFPSEPLVAHFTT
modifications: conjugated to KRAS2 tool siRNA; site and linker not stated
LSA EC50 (luciferase reporter assay, SW620-rLuc-KRAS cells, 72 h) [5]: 0.63 nM

B9: CD71-binding FN3 domain of SEQ ID NO: 105 (designed binder)
chain: MLPAPKNLVVSRVTEDSARLSWTAPDAAFDSFHIVYHEPRPSGEAIWLWVPGSERSYDLTGLKPGTEYEVGIVSVKGGDLSVPLSAIFTT
notes: as for B1
hCD71, RLU [1]: 1.51e+06 RLU
Apical domain, RLU [2]: 3.84e+06 RLU
hCD71:HSA [3]: 503 ratio
Apical domain:HSA [4]: 1280 ratio

B10: CD71-binding FN3 domain of SEQ ID NO: 110 (designed binder)
chain: MLPAPKNLVVSRVTEDSARLSWTAPDAAFDSFHIVYHEPRPSGEAIYLEVPGSERSYDLTGLKPGTEYEVGIVSVKGGDLSVPLRAHFTT
notes: as for B1
hCD71, RLU [1]: 5.17e+06 RLU
Apical domain, RLU [2]: 6e+06 RLU
hCD71:HSA [3]: 2070 ratio
Apical domain:HSA [4]: 2400 ratio

B11: CD71-binding FN3 domain of SEQ ID NO: 114 (designed binder)
chain: MLPAPKNLVVSRVTEDSARLSWTAPDAAFDSFHIVYHEPRPSGEAIWLFVPGSERSYDLTGLKPGTEYEVGIVSVKGGDLSVPLSAIFTT
notes: as for B1
hCD71, RLU [1]: 1.5e+06 RLU
Apical domain, RLU [2]: 3.59e+06 RLU
hCD71:HSA [3]: 130 ratio
Apical domain:HSA [4]: 311 ratio

B12: CD71-binding FN3 domain of SEQ ID NO: 497 (designed binder)
chain: MLPAPKNLVVSRVTEDSARLSWTAPDAAFDSFFIGYLEPQPPGEAITLLVPGSERSYDLTGLKPGTEYNVTIQGVKGGFPSKPLYAYFTT
CTG EC50 (CellTiter-Glo luminescent assay, SKBR3 cells, 72 h) [6]: 31.3 nM

B13: CD71-binding FN3 domain of SEQ ID NO: 112 (designed binder)
chain: MLPAPKNLVVSRVTEDSARLSWTAPDAAFDSFFIGYLEPQPPGEAIDLWVPGSERSYDLTGLKPGTEYNVTIQGVKGGFPSMPLSAIFTT
notes: as for B1
hCD71, RLU [1]: 5.41e+06 RLU
Apical domain, RLU [2]: 4.78e+06 RLU
hCD71:HSA [3]: 2040 ratio
Apical domain:HSA [4]: 1800 ratio

B14: CD71-binding FN3 domain of SEQ ID NO: 527 (designed binder)
chain: MLPAPKNLVVSRVTEDSARLSWTAPDAAFDSFFIGYLEPQPPGEAIHLYVPGSERSYDLTGLKPGTEYNVTIQGVKGGFPSEPLIANFTT
CTG EC50 (CellTiter-Glo luminescent assay, SKBR3 cells, 72 h) [6]: 0.1 nM

B15: CD71-binding FN3 domain of SEQ ID NO: 111 (designed binder)
chain: MLPAPKNLVVSRVTEDSARLSWTAPDAAFDSFFIGYLEPQPPGEAISLWVPGSERSYDLTGLKPGTEYNVTIQGVKGGFPSIPLWAIFTT
notes: as for B1
hCD71, RLU [1]: 3.7e+06 RLU
Apical domain, RLU [2]: 5.04e+06 RLU
hCD71:HSA [3]: 1420 ratio
Apical domain:HSA [4]: 1940 ratio

B16: CD71-binding FN3 domain of SEQ ID NO: 115 (designed binder)
chain: MLPAPKNLVVSRVTEDSARLSWTAPDAAFDSFFIGYLEPQPPGEAIDLYVPGSERSYDLTGLKPGIEYNVTIQGVKGGFPSLPLQAHFTT
notes: as for B1
hCD71, RLU [1]: 5.19e+06 RLU
Apical domain, RLU [2]: 4.58e+06 RLU
hCD71:HSA [3]: 999 ratio
Apical domain:HSA [4]: 881 ratio

B17: CD71-binding FN3 domain of SEQ ID NO: 107 (designed binder)
chain: MLPAPKNLVVSRVTEDSARLSWTAPDAAFDSFFIGYLEPQPPGEAIGLQVPGSERSYDLTGLKPGTEYNVTIQGVKGGFPSMPLSAIFTT
notes: as for B1
hCD71, RLU [1]: 6.03e+06 RLU
Apical domain, RLU [2]: 4.23e+06 RLU
hCD71:HSA [3]: 1860 ratio
Apical domain:HSA [4]: 1300 ratio

B18: CD71-binding FN3 domain of SEQ ID NO: 113 (designed binder)
chain: MLPAPKNLVVSRVTEDSARLSWTAPDAAFDSFFIGYLEPQPPGEAIYLLVPGSERSYDLTGLKPGTEYNVTIQGVKGGFPSDPLSAIFTT
notes: as for B1
hCD71, RLU [1]: 4.6e+06 RLU
Apical domain, RLU [2]: 5.94e+06 RLU
hCD71:HSA [3]: 1640 ratio
Apical domain:HSA [4]: 2120 ratio

B19: CD71-binding FN3 domain of SEQ ID NO: 117 (designed binder)
chain: MLPAPKNLVVSRVTEDSARLSWTAPDAAFDSFFIGYLEPQPPGEAIWLLVPGSERSYDLTGLKPGTEYNVTIQGVKGGFPSTPLSAIFTT
notes: as for B1
hCD71, RLU [1]: 4.21e+06 RLU
Apical domain, RLU [2]: 5.33e+06 RLU
hCD71:HSA [3]: 1120 ratio
Apical domain:HSA [4]: 1420 ratio

B20: CD71-binding FN3 domain of SEQ ID NO: 104 (designed binder)
chain: MLPAPKNLVVSRVTEDSARLSWTAPDAAFDSFFIGYLEPQPPGEAIHLIVPGSERSYDLTGQKPGTEYNVTIQGVKGGFPSDPLVASFTT
notes: as for B1
hCD71, RLU [1]: 6.36e+06 RLU
Apical domain, RLU [2]: 4.43e+06 RLU
hCD71:HSA [3]: 216 ratio
Apical domain:HSA [4]: 150 ratio

B21: CD71-binding FN3 domain of SEQ ID NO: 109 (designed binder)
chain: MLPAPKNLVVSRVTEDSARLSWTAPDAAFDSFFIGYLEPQPPGEAIILHVPGSERSYDLTGLKPGTEYNVTIQGVKGGFPSLPLNANFTT
notes: as for B1
hCD71, RLU [1]: 3.94e+06 RLU
Apical domain, RLU [2]: 3.35e+06 RLU
hCD71:HSA [3]: 1210 ratio
Apical domain:HSA [4]: 1030 ratio

B22: CD71-binding FN3 domain of SEQ ID NO: 102 (designed binder)
chain: MLPAPKNLVVSRVTEDSARLSWTAPDAAFDSFDIGYTEYGGYGEAIILQVPGSERSYDLTGLKPGTEYWVLIQGVKGGGSSVPLVAYFTT
notes: as for B1
hCD71, RLU [1]: 308000 RLU
Apical domain, RLU [2]: 5.87e+06 RLU
hCD71:HSA [3]: 68 ratio
Apical domain:HSA [4]: 1290 ratio
